Laboratory results reported in patent US8716437B2 (priority 2007, dated 2014).
Where a chain is given by its changes, count along the chain named. Values joined by “and” are separate entries in the source; they are usually repeats but may differ in a detail not shown here. Equal values may be shown once. Where no end group is shown, it is not given here.

Tests used:
[1] = target: BK channel, species not stated
[2] = target: Kv1.1 K+ channel, species not stated
[3] = target: Kv1.2 K+ channel, species not stated
[4] = target: Kv1.3 K+ channel, wild-type, species not stated
[5] = target: KcsA carrying a segment of the Kv1.3 pore loop (KcsA-1.3); assay: panning of a 1:99 mixture of Shk and Camel VHH phages on KcsA-1.3, n = 17-20
[6] = target: Kv1.3 K+ channel, wild-type, species not stated; remark: listed apart in the source
[7] = target: KcsA carrying a segment of the Kv1.3 pore loop (KcsA-1.3)
[8] = target: Kv1.3 K+ channel, wild-type, species not stated; remark: listed apart in the source
[9] = target: Kv1.3 K+ channel, wild-type, species not stated; remark: listed apart in the source
[10] = target: Kv1.3 K+ channel, wild-type, species not stated; remark: listed apart in the source
[11] = target: Kv1.3 K+ channel, wild-type, species not stated; assay: phage panning on COS cells
[12] = target: Kv1.3 K+ channel, wild-type, species not stated; assay: phage panning on HEK cells
[13] = target: KcsA carrying a segment of the Kv1.3 pore loop (KcsA-1.3); remark: listed apart in the source
[14] = target: Kv1.3 K+ channel, wild-type, species not stated; assay: one round of panning of KTX and nonspecific phages on cells expressing Kv1.3
[15] = target: T1, Kv1.1 (Rattus norvegicus, UniProt P10499); assay: Two electrode voltage clamp, Xenopus oocytes, Kv1.1; type: cell-based
T1 construct: expressed in transfected cells; host or cells: Xenopus laevis oocytes (cRNA injection)
Protocol: (§1) To examine the effect of mokatoxin-1 on activity of potassium ion channels, cDNA encoding Rattus Kv1.1 (NCBI accession number NM_173095), Rattus Kv1.2 (NM_012970), Homo Kv1.3 (NM_002232), or Mus BK (NM_010610) were subcloned into oocyte expression vectors based on PCR3.1 and pGEM. cRNA synthesis was performed with T7 polymerase and the mMessageMachine Kit (Ambion, Austin, Tex.) according to manufacturers instructions. cRNA concentrations were determined spectroscopically. For two electrode voltage clamp recordings oocytes were extracted from Xenopus laevis and defoliculated with Collagenase Type 2 (Worthington, Lakewood, N.J.). Oocytes were maintained in ND91 solution containing 2 mM KCl, 91 mM NaCl, 1 mM MgCl2, 1.8 mM CaCl2, and 5 mM HEPES, pH 7.5, supplemented with 1% Penicillin/Streptomycin (Cellgro, Hemdon, Va.) and 0.1% Gentamycin sulfate (Gibco, Grand Island, N.Y.)) at 16° C. Stage V and VI oocytes were injected with 8 pg to 4 ng cRNA, and currents recorded 1 to 4 days later.
(§2) For dose-response measurements of toxin block of Kv1.1, Kv1,2, or Kv1.3 peak currents were recorded during a 500 ms step to 0 mV from a holding voltage of −100 mV, followed by a 200 ms step to −135 mV every 30 s. To determine the kinetics of toxin block oocytes were held at −100 mV and stepped to the test voltage of 0 mV for 100 ms followed by a 200 ms duration step to −135 mV every 2 s. BK currents were recorded during a 50 ms step to +60 mV from a holding voltage of −80 mV, followed by a 40 ms step to −100 mV every 3 s. The perfusion solution contained 2 mM KCl, 96 mM NaCl, 1 mM MgCl2, 1.8 mM CaCl2, 5 mM HEPES, pH 7.5 and 0.1% fatty acid ultra-free BSA fraction V (Roche Diagnostics Corporation, Indianapolis, Ind.). Data acquisition and processing was performed with an oocyte clamp OC-725B (Warner Instruments Corporation, Hamden, Conn.), pCLAMP (Axon, Sunnyvale, Calif.), IGOR Pro (WaveMetrics, Lake Oswego, Oreg.), and Origin6.1 (OriginLab Corporation, Northampton, Mass.) softwares. The equilibrium dissociation rates (KD) for block of Kv1.1, Kv1.2, and Kv1.3 by mokatoxin-1 were determined by fitting the dose-response data and kon and koff were calculated as described by Goldstein and Miller, 1993 (Biophys J. 1993 65 (4):1613-1619).

[16] = target: T2, Kv1.2 (Rattus norvegicus, UniProt P63142); assay: Two electrode voltage clamp, Xenopus oocytes, Kv1.2; type: cell-based
T2 construct: expressed in transfected cells; host or cells: Xenopus laevis oocytes (cRNA injection)
Protocol: as §1, §2

[17] = target: T3, BK (Mus musculus, UniProt Q08460); assay: Two electrode voltage clamp, Xenopus oocytes, BK; type: cell-based
T3 construct: expressed in transfected cells; host or cells: Xenopus laevis oocytes (cRNA injection)
Protocol: as §1, §2

[18] = system: guinea pig ileum; settings: J Pharmacol Exp Ther. 1999; cited from earlier work
[19] = target: Kv1.3 (Homo sapiens, UniProt P22001); assay: Two electrode voltage clamp, Xenopus oocytes, Kv1.3; type: cell-based; set-up: expressed in transfected cells; host or cells: Xenopus laevis oocytes (cRNA injection)
Source text: Thereafter, MK-1 was synthesized. […] The blocking of […] by MK-1 is represented by filled circles; the blocking of Kv1.2 by MK-1 is represented by filled diamonds; and the blocking of Kv1.1 by MK-1 is represented by filled triangles.
as §1, §2

[20] = target: KcsA carrying a segment of the Kv1.3 pore loop (KcsA-1.3); remark: listed apart in the source
[21] = target: KcsA carrying a segment of the Kv1.3 pore loop (KcsA-1.3); assay: library panning on immobilised KcsA-1.3
[22] = target: Mus BK (mouse big conductance calcium-activated K channel) (Mus) (UniProt Q08460)
[23] = target: Rattus Kv1.1 (Rattus) (UniProt P10499)
[24] = target: Rattus Kv1.2 (Rattus) (UniProt P63142)
[25] = target: human Kv1.3 (Homo) (UniProt P22001)
[26] = target: human Kv1.3 (Homo) (UniProt P22001); remark: listed apart in the source
[27] = target: Rattus Kv1.1 (Rattus, UniProt P10499); assay: cell-based or functional assay
[28] = target: Mus BK (mouse big conductance calcium-activated K channel) (Mus, UniProt Q08460); assay: cell-based or functional assay
[29] = target: Rattus Kv1.2 (Rattus, UniProt P63142); assay: cell-based or functional assay
[30] = target: human Kv1.3 (Homo, UniProt P22001); assay: cell-based or functional assay

T1 sequence (P10499 whole entry): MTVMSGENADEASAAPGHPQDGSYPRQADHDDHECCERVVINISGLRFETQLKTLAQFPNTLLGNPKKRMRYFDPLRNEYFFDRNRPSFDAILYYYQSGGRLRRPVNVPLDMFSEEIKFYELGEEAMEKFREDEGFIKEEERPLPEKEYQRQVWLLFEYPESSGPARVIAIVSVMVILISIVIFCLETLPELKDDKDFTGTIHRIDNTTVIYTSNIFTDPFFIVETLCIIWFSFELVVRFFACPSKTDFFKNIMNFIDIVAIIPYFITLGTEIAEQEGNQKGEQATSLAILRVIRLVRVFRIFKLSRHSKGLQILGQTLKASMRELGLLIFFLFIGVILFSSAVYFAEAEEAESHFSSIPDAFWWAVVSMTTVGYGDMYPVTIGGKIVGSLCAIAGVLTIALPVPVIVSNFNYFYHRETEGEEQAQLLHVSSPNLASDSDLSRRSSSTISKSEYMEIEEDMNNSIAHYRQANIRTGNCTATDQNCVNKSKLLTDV
T3 sequence (Q08460 whole entry): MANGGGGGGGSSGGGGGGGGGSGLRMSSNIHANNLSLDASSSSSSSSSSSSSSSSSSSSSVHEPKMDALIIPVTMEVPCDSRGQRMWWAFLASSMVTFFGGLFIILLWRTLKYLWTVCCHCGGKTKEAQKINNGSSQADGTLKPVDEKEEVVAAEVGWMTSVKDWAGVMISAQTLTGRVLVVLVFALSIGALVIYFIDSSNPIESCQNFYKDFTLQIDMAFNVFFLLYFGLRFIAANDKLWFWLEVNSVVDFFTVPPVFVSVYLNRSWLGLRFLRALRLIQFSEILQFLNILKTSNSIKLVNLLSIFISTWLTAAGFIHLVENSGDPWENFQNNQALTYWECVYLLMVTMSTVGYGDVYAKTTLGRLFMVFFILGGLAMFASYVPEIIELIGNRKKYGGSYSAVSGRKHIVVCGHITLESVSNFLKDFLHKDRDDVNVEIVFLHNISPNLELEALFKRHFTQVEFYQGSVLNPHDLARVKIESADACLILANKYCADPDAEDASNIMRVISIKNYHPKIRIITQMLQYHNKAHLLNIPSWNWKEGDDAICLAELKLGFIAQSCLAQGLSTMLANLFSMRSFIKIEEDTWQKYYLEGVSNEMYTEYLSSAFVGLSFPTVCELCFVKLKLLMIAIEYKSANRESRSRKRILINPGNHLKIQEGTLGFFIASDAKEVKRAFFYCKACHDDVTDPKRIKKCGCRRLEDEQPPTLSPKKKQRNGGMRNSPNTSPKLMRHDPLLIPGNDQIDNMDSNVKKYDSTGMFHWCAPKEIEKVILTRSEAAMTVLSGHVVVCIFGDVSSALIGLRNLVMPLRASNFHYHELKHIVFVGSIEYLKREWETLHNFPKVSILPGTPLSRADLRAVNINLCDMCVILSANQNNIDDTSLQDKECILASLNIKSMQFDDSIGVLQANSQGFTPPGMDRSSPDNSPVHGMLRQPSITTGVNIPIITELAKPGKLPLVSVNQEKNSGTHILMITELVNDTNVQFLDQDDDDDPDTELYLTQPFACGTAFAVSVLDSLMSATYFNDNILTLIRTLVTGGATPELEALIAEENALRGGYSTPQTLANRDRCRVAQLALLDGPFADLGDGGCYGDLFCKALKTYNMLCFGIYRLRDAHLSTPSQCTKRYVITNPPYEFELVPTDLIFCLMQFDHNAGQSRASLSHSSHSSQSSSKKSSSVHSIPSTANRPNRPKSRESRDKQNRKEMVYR
Chain of Kv1.3 (P22001 whole entry): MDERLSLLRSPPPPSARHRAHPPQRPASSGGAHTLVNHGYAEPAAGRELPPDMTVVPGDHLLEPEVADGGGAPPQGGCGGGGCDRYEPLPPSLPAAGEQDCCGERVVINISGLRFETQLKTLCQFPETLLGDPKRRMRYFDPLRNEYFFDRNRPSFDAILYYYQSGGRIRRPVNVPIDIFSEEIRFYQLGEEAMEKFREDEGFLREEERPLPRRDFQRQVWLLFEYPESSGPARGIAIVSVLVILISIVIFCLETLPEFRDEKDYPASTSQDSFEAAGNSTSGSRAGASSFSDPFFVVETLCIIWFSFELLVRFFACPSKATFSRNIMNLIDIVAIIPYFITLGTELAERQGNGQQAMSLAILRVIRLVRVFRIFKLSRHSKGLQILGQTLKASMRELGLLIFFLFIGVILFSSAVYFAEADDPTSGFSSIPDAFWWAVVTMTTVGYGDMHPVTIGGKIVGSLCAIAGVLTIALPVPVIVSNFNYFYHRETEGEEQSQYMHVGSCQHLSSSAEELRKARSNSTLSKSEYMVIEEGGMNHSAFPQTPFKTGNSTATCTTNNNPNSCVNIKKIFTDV
T2 sequence (P63142 whole entry): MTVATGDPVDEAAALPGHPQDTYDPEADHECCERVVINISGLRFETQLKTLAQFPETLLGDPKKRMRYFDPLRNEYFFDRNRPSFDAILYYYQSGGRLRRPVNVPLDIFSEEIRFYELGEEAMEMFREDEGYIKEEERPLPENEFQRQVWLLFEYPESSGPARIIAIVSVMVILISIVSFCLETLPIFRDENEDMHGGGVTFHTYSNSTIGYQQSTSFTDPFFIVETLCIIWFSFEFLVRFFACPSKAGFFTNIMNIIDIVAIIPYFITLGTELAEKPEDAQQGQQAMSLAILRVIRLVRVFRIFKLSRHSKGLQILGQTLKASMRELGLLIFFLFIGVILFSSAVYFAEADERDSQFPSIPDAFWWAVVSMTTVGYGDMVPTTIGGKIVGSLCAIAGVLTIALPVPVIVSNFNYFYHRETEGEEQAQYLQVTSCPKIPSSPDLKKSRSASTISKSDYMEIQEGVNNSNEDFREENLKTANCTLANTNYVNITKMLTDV

agitoxin-2 (AgTx2) (peptide) showed an approximate IC50 [1] of 1150 nM, an approximate IC50 [2] of 0.04 nM and an approximate IC50 [3] of 26.8 nM. The approximate IC50 [4] was 0.004 nM.

Molecule “Shk phage (sea anemone Stichodactyla helianthus ShK toxin on phage)” has a % phages, OUTPUT [5] of 20%.

For Kaliotoxin-1 phage (KTX-phage), the OUTPUT KTX (%) [6] was 22% and 30% and 26%, the Output (% Ligands) [7] was 100% and the % of recovered phage, 2nd round [8] was 0%. For the same molecule, the % of recovered phage, 3rd round [8] was 58%, the Kv1.3 current, whole-cell patch-clamp [9] was 35% and the % of phage after the 2nd panning [10] was 40%. For the same molecule, the fold enrichment (Kv1.3 transfected against vector cells) [11] was 10 fold, the fold enrichment (Kv1.3 transfected against vector cells) [12] was 20 fold and the Fold Enrichment [13] was 3.6 fold. For the same molecule, the Fold Enrichment [14] was 4.3 fold and 5.2 fold.

Molecule CC[C@H](C)[C@@H]1NC(=O)[C@@H]2CSSC[C@@H]3NC(=O)[C@H](CCCCN)NC(=O)[C@H](CCCNC(=N)N)NC(=O)[C@H](CC(N)=O)NC(=O)[C@H](CCSC)NC(=O)[C@H](CSSC[C@H](NC(=O)[C@H](CO)NC(=O)[C@@H](NC(=O)[C@H](CC(N)=O)NC(=O)[C@@H](NC(=O)[C@@H]4CCCN4C(=O)[C@@H](NC(=O)CN)C(C)C)[C@@H](C)CC)C(C)C)C(=O)N[C@@H]([C@@H](C)O)C(=O)NCC(=O)N[C@@H](CO)C(=O)N4CCC[C@H]4C(=O)N[C@@H](CCC(N)=O)C(=O)N2)NC(=O)[C@H](CCCCN)NC(=O)CNC(=O)[C@H](Cc2ccccc2)NC(=O)[C@H](CCCNC(=N)N)NC(=O)[C@H](CCSC)NC(=O)CNC(=O)[C@H](C)NC(=O)[C@H](CC(=O)O)NC(=O)[C@H](CCCCN)NC(=O)[C@H](CSSC[C@@H](C(=O)N[C@H](C(=O)N2CCC[C@H]2C(=O)N[C@@H](CCCCN)C(=O)O)[C@@H](C)O)NC(=O)[C@H](Cc2c[nH]cn2)NC3=O)NC(=O)[C@@H]2CCCN2C(=O)[C@H](CCCCN)NC1=O [AgTX2, agitoxin-2] has an IC50 [15] of 0.04 nM, an IC50 [16] of 26.8 nM and an IC50 [17] of ~1150 nM. The ileum contractions [18] was “contractions” and the IC50 [19] was 0.004 nM.

Molecule charybdotoxin (CTX) (peptide) has an approximate IC50 [1] of 3 nM, an approximate IC50 [2] of 1500 nM and an approximate IC50 [3] of 5.6 nM. For the same molecule, the approximate IC50 [4] was 2.5 nM.

Work on mokatoxin-1-phage yielded a % of the phage isolated after two rounds of selection [20] of 60%, a % of phage after the 2nd panning [10] of 15% and a % of the eluted phage after two rounds of panning [21] of 16.6%.

In the case of mokatoxin-1 (peptide), the approximate IC50 [1] is reported as > 1000 nM, the approximate IC50 [2] is reported as > 1000 nM and the approximate IC50 [3] is reported as 680 nM. The approximate IC50 [4] was 3 nM, the Ki (block of channel current) [22] was > 1000 nM and the Ki (block of channel current) [23] was > 1000 nM. For the same molecule, the Ki (block of channel current) [24] was 620 nM, the Koff (block of channel current) [24] was 0.16 [s]^-1 and the Kon (block of channel current) [24] was 260000 [M · s]^-1. The Ki (block of channel current) [25] was 1 nM, the Koff (block of channel current) [25] was 0.059 [s]^-1 and the Kon (block of channel current) [25] was 3.6e+07 [M · s]^-1. It also gave an IL-2, TNF-α and IFN-γ secretion by CD3/CD28 activated human T cells (ELISA) [26] of 50%.

With Kaliotoxin-1 (KTX) (peptide) the approximate IC50 [1] was 5 nM, the approximate IC50 [2] was 0.1 nM and the approximate IC50 [3] was 1.4 nM. It also gave an approximate IC50 [4] of 0.5 nM.

Molecule “sarafotoxin S6b phage (from UniProt P13208)” has an Output (% Ligands) [7] of 0%.

“Dendroaspis natriuretic peptide (DNP) phage (from UniProt P28374)” showed an Output (% Ligands) [7] of 0%.

In the case of “fasciculin-2 phage (from UniProt P0C1Z0)”, the Output (% Ligands) [7] is reported as 0%.

B1: charybdotoxin (CTX) (peptide)
peptide: ZFTNVSCTTSKECWSVCQRLHNTSRGKCMNKKCRCYS
modifications: Z printed as first residue in Table 2
With B1 the “Ki (block of channel current)” value [27] was > 1000 nM and the “Ki (block of channel current)” value [28] was 5 nM.

B2: Kaliotoxin-1 (KTX) (peptide)
peptide: GVEINVKCSGSPQCLKPCKDAGMRFGKCMNRKCHCTPK
With B2 the “Ki (block of channel current)” value [27] was 1.1 nM, the “Koff (block of channel current)” value [27] was 0.009 [s]^-1 and the “Kon (block of channel current)” value [27] was 3e+07 [M · s]^-1. For the same molecule, the “Ki (block of channel current)” value [29] was 20 nM, the “Koff (block of channel current)” value [29] was 0.21 [s]^-1 and the “Kon (block of channel current)” value [29] was 1.3e+07 [M · s]^-1. The “Ki (block of channel current)” value [28] was 1.6 nM, the “Koff (block of channel current)” value [28] was 0.0211 [s]^-1 and the “Kon (block of channel current)” value [28] was 21000 [M · s]^-1. For the same molecule, the “Ki (block of channel current)” value [30] was 0.008 nM, the “Koff (block of channel current)” value [30] was 0.007 [s]^-1 and the “Kon (block of channel current)” value [30] was 8e+08 [M · s]^-1.

B3: agitoxin-2 (AgTx2) (peptide)
peptide: B2 peptide with E3P, K7S, S9T, L15I
modifications: ends and bridges not checked; cysteine pairing not given here
In the case of B3, the “Ki (block of channel current)” value [27] is reported as 0.17 nM, the “Ki (block of channel current)” value [29] is reported as 3.4 nM and the “Ki (block of channel current)” value [30] is reported as 0.041 nM.
